Assay results as given in patent publication US20090136506A1, “Conserved Membrane Activator of Calcineurin (CMAC), a Novel Therapeutic Protein and Target” (priority 2005, published 2009).

Legend:
Assay type in all cases: cell-based
[1] = system: cMAC mediated translocation of TORC1-eGFP; experiment: TORC1-eGFP translocation in HeLa:TORC1-eGFP cells transduced with human cMAC; conditions: EGTA in the medium; reversed by excess calcium (data not shown)
NFAT-1 = NFAT-1 translocation in Jurkat cells; conditions: PMA alone
Experimental: (§1) Fixing and staining Jurkat cells, NFAT translocation assay: Following treatment Jurkat cells were attached to 96 well plates using the Becton Dickinson Cell-Tak cell adhesive. The suspension cells were centrifuged (800×G) for 5 min onto precoated plates (as per manufacturer's instruction). The attached cells were permeabilized in 3.7% formaldehyde, 0.5% Triton X100 and washed twice with wash buffer (0.5% Triton X100 in PBS) and blocked with 2% BSA, 0.1% Triton X100 in PBS. The cells were incubated in primary antibodies NFAT-1 (Cellomics K01-0011-1 diluted 1:100) and NFAT-2 (Affinity Bioreagents MA3-024 diluted 1:250) in blocking buffer for 1 hour at room temperature. Cells were washed twice with wash buffer and incubated with secondary goat anti-mouse IgG conjugated to Alexa Fluor 488 GαM (Cellomics K01-0011-1 reagents antibody diluted 1:2000, and Hoechst dye 1:2000) in blocking buffer. Cells were washed once with PBS and imaged. […]
(§2) The effect of cMAC on the nuclear translocation of the transcription factor NFAT and its dependence on calcineurin was also examined. […] While NFAT-1 and NFAT-2 were detected in the cytoplasm of control virus infected cells, both isoforms of NFAT were localized primarily in the nucleus in a large proportion of cMAC transduced cells. […]

NFAT-2 = NFAT-2 translocation in Jurkat cells; conditions: PMA alone
Experimental: as §1, §2

IL-2 [2] = experiment: Jurkat T-cell activation, IL-2 protein (ELISA); conditions: Jurkat cells, PMA alone
Experimental: (§3) Transduction and sensitization of Jurkat cells: Jurkat cells were maintained in RPMI 1640 (GIBCO 21870-076) 10% FC1 Fetal clone1 (Hyclone), 1% Pen/Strep, 1% Glutamax1, 0.1% beta mercaptoethanol. Prior to transduction the cells were switched to transduction media which contains: RPMI 1640 (above) fortified with 2.25 g glucose 1% antibiotic/antimycotic, 1% 1M Hepes (Gibco), 1% 100 mM sodium pyruvate, 10 ml 7.5% Sodium Bicarbonate 10% Fetal Clone serum 1. Cells were seeded 5×104 in transduction media combined with virus (volume in legend) and 4 ug/ml polybrene final concentration and centrifuged at ˜800×g for 3 hrs. For activation of ICOS and IL-2 expression experiments cells were transduced with 50 μl of retroviral supernatant (QL-GW-Final-Kan) and 48 hours post transduction the media was fortified with PMA (phorbol 12-myristate 13-acetate) 10 ng/ml and 24 hours after addition the cells or media were removed for ICOS or IL-2 measurements. […]
(§4) Analysis of ICOS surface marker and IL-2 protein expression: 1.5 uL of ICOS-PE (BD-Parmingen 557802) was combined with ˜1×10^6 Jurkat cells and incubated on ice for 30 min. Cells were centrifuged ˜500×g 5 min and washed 2×PBS and the mean channel flourescence determined using flow cytometry (BD FACSCaliber). IL-2 levels were measured using the QuantiGlo IL-2 Elisa kit (R&D Systems).
(§5) We assessed the role of TRPV6 and cMAC in a T-cell activation screen. […]

ICOS = experiment: Jurkat T-cell activation, ICOS surface marker expression; conditions: Jurkat cells, PMA alone
Experimental: as §3, §4, §5

IL-2 [3] = experiment: IL-2 production of TCR/CD28 activated Jurkat T-cells after viral shDNA transduction; conditions: TCR/CD28 activated 6 days post transduction; for Average IL-2 % inhibition: pLKO.1 shDNA, puromycin selected, IL-2 normalized to viable cells
Experimental: as §4
Jurkat cell activation for shDNA inhibition studies: To assess shDNA efficacy, Jurkat cells (15000) were transduced with 10 μL LKO virus as described and 24 hours post transduction the media was fortified with puromycin (see below). Six days post transduction half the cells were activated with antibodies targeting TCR and CD28 receptors bound to a 96 well plate surface and incubated overnight and the media was collected for IL-2 determination. The remaining cells were used to determine the fraction of viable cells in each well using the Cell Titer-Glo assay (see below).
The activation plates were prepared by coating goat anti-mouse IgG, Fcγ fragment specific antibody (Jackson ImmunoResearch Laboratories) 55 μl per well at a final concentration of 10 μg/ml in PBS. The plates were incubated 3 hours at room temperature. Excess IgG was removed and plates were blotted. Plates were blocked with 300 μL 2% BSA/PBS (BSA, Fraction V lyophilizate, Roche) and incubated for 2 hours at room temperature. The plates were washed 3 times with PBS and stimulating antibodies anti-TCR 0.01 ug/ml (BD Biosciences 347770 clone WT31) and anti-CD28 0.3 ug/ml (BD Pharmingen 555725) in 2% BSA/PBS final volume 50 μL/well. Plates were incubated overnight and washed 3 times with PBS prior to addition of cells for activation.
(§6) Puromycin selection of shDNA transduced Jurkat cells and normalization for cell survival: The LKO viral vector used in this study contains a puromycin selection marker. Jurkat cells infected with shDNA constructs (LKO.1) were put under puromycin selection 24 hrs post infection by addition of puromycin (2 μg/ml) and maintained for the duration of the experiment (6 days post infection, 3 days for mRNA quantitation). To account for differences in cell number after puromycin selection (possibly due to variations in viral titer), we adopted a cellular ATP assay which is proportional to cell number (Cell Titer-Glo Luminescent Assay Kit, Promega). The assay was performed as per the manufacturer's instruction. A standard curve was generated for each cell type to determine linearity for the assay. The IL-2 concentrations were normalized to cell number by dividing the calculated IL-2 concentration by the rLU values for the cell titer-glo assay, which is equivalent to IL-2 expression/cell number. The mRNA expression levels were determined 3 days post infection.
To assess whether cMAC was essential for T-cell activation, we designed several shDNA constructs targeting cMAC. In these experiments Jurkat T-cells were transduced with viral constructs targeting cMAC or another unrelated gene. 6 days post transduction, the cells were activated with TCR/CD28 antibodies and the level of cMAC mRNA and IL-2 secreted into the media was measured. […] FIG. 10.

cMAC mRNA = cMAC mRNA knockdown in shDNA transduced Jurkat cells; conditions: for Average cMAC mRNA % Inhib.: 3 days post infection (2 days post puromycin selection)
Experimental: as §6
Determination of mRNA knockdown for cMAC: Jurkat mRNA expression levels were determined 3 days post infection (2 days post puromycin selection).
To determine the specificity of the shDNA construct, the reduction of cMAC mRNA was measured for each construct (Table 8) and compared to the inhibition of IL-2 observed. The pGL3-Luc and CD29 shDNA constructs served as negative controls. […] In those instances it may be that the shDNA is causing decreases in the expression of cMAC protein through microRNA effects. Thus, it appears that with the exception of 2 constructs (BL6 and BL8) the phenotypically active IL-2 constructs correlate with reduced cMAC mRNA levels.

CD29 mRNA = CD29 mRNA knockdown by shDNA construct

Row | Molecule | Average IL-2 % inhibition (IL-2 [3]) [%] | Average cMAC mRNA % Inhib. (cMAC mRNA) [%] | other results
1 | O=C(O)CN(CCOCCOCCN(CC(=O)O)CC(=O)O)CC(=O)O [EGTA] |  |  | effect on cMAC induced nuclear TORC1 translocation [1]: blocked
2 | CCCCCCCCCCCCCC(=O)O[C@@H]1[C@@H](C)[C@@]2(O)[C@@H](C=C(CO)C[C@]3(O)C(=O)C(C)=C[C@@H]23)[C@@H]2C(C)(C)[C@]12OC(C)=O [PMA, phorbol 12-myristate 13-acetate] |  |  | effect on NFAT-1 translocation (NFAT-1): no effect; effect on NFAT-2 translocation (NFAT-2): no effect; upregulation of IL-2 (IL-2 [2]): did not upregulate; upregulation of ICOS expression levels (ICOS): did not upregulate
3 | cMAC BL6: shDNA construct in pLKO.1 lentiviral vector, target sequence actagaatgttgacctcga (SEQ ID NO: 117) (nucleic acid) sense: CCGGACTAGAATGTTGACCTCGATTCAAGAGATCGAGGTCAACATTCTAGTTTTTT antisense: AATTAAAAAACTAGAATGTTGACCTCGATCTCTTGAATCGAGGTCAACATTCTAGT | −9.34 | 35.8 | IL-2 reduction (IL-2 [3]): without any IL-2 reduction; Average cMAC mRNA % Inhib. (cMAC mRNA; listed as BL6): 36%
4 | cMAC MB4: shDNA construct in pLKO.1 lentiviral vector, target sequence ccttgggcuggcactcttatt (SEQ ID NO: 129) (nucleic acid) sense: CCGGCCTTGGGCUGGCACTCTTATTCAAGAGATAAGAGTGCCAGCCCAAGGTTTTT antisense: AATTAAAAACCTTGGGCTGGCACTCTTATCTCTTGAATAAGAGTGCCAGCCCAAGG | 78.9 | 65.9 | 
5 | cMAC BL8: shDNA construct in pLKO.1 lentiviral vector, target sequence gtcaggtgccacatgagaa (SEQ ID NO: 123) (nucleic acid) sense: CCGGGTCAGGTGCCACATGAGAATTCAAGAGATTCTCATGTGGCACCTGACTTTTT antisense: AATTAAAAAGTCAGGTGCCACATGAGAATCTCTTGAATTCTCATGTGGCACCTGAC | 8.03 | 70.1 | IL-2 reduction (IL-2 [3]): without any IL-2 reduction; Average cMAC mRNA % Inhib. (cMAC mRNA; listed as BL8): 70%
6 | cMAC BL7: shDNA construct in pLKO.1 lentiviral vector, target sequence ccgggtttccctattccaa (SEQ ID NO: 120) (nucleic acid) sense: CCGGCCGGGTTTCCCTATTCCAATTCAAGAGATTGGAATAGGGAAACCCGGTTTTT antisense: AATTAAAAACCGGGTTTCCCTATTCCAATCTCTTGAATTGGAATAGGGAAACCCGG | 40.8 | 66.4 | 
7 | cMAC BL2: shDNA construct in pLKO.1 lentiviral vector, target sequence gcctttgttagatctatca (SEQ ID NO: 105) (nucleic acid) sense: CCGGGCCTTTGTTAGATCTATCATTCAAGAGATGATAGATCTAACAAAGGCTTTTT antisense: AATTAAAAAGCCTTTGTTAGATCTATCATCTCTTGAATGATAGATCTAACAAAGGC | 75.5 | 72.6 | 
8 | cMAC BL5: shDNA construct in pLKO.1 lentiviral vector, target sequence gatttaagcctccctaaga (SEQ ID NO: 114) (nucleic acid) sense: CCGGGATTTAAGCCTCCCTAAGATTCAAGAGATCTTAGGGAGGCTTAAATCTTTTT antisense: AATTAAAAAGATTTAAGCCTCCCTAAGATCTCTTGAATCTTAGGGAGGCTTAAATC | 72.2 | 67.0 | 
9 | cMAC BL3: shDNA construct in pLKO.1 lentiviral vector, target sequence catctttgttggcctacga (SEQ ID NO: 108) (nucleic acid) sense: CCGGCATCTTTGTTGGCCTACGATTCAAGAGATCGTAGGCCAACAAAGATGTTTTT antisense: AATTAAAAACATCTTTGTTGGCCTACGATCTCTTGAATCGTAGGCCAACAAAGATG | 52.1 | 30.1 | 
10 | cMAC BL4: shDNA construct in pLKO.1 lentiviral vector, target sequence ggttatctgttgcccaaga (SEQ ID NO: 111) (nucleic acid) sense: CCGGGGTTATCTGTTGCCCAAGATTCAAGAGATCTTGGGCAACAGATAACCTTTTT antisense: AATTAAAAAGGTTATCTGTTGCCCAAGATCTCTTGAATCTTGGGCAACAGATAACC | 65.7 | 56.2 | 
11 | cMAC BL9: shDNA construct in pLKO.1 lentiviral vector, target sequence caggaatgtcctccaacca (SEQ ID NO: 126) (nucleic acid) sense: CCGGCAGGAATGTCCTCCAACCATTCAAGAGATGGTTGGAGGACATTCCTGTTTTT antisense: AATTAAAAACAGGAATGTCCTCCAACCATCTCTTGAATGGTTGGAGGACATTCCTG | 37.8 | 54.8 | 
12 | CD29 shDNA construct: negative control shDNA construct targeting CD29, target sequence ggtagaaagtcgggacaaa (SEQ ID NO: 132) (nucleic acid) sense: CCGGGGTAGAAAGTCGGGACAAATTCAAGAGATTTGTCCCGACTTTCTACCTTTTT antisense: AATTAAAAAGGTAGAAAGTCGGGACAAATCTCTTGAATTTGTCCCGACTTTCTACC |  |  | effect on cMAC message (cMAC mRNA): no effect; reduction of CD29 mRNA (CD29 mRNA): potently reduced CD29 mRNA
